Source: article PMC2949527 (Journal of molecular biology, 2010)

Biological target: the molecule itself
Assay: NMR solution structure

B1: RFX5(25-90), oligomerization domain of RFX5 (domain or fragment, UniProt P48382 25-90, looked up)
chain: GEPTTLLQRLRGTISKAVQNKVEGILQDVQKFSDNDKLYLYLQLPSGPTTGDKSSEPSTLSNEEYM
  stoichiometry N: 2
